Results reported in publication PMC9201815, “Rapid Quantification of C. difficile Glutamate Dehydrogenase and Toxin B (TcdB) with a NanoBiT Split-Luciferase Assay” (Analytical Chemistry, 2022).

B1: Nanobody 7F (VHH)
VHH: QVQLVESGGGLVEAGGSLRLSCVVTGSSFSTSTMAWYRQPPGKQREWVASFTSGGAIKYTDSVKGRFTMSRDNAKKMTYLQMENLKPEDTAVYYCALHNAVSGSSWGRGTQVTVSS
notes: also called TcdB nanobody 7F
B2: C. difficile glutamate dehydrogenase (GDH) (enzyme)
chain: MSGKDVNVFEMAQSQVKNACDKLGMEPAVYELLKEPMRVIEVSIPVKMDDGSIKTFKGFRSQHNDAVGPTKGGIRFHQNVSRDEVKALSIWMTFKCSVTGIPYGGGKGGIIVDPSTLSQGELERLSRGYIDGIYKLIGEKVDVPAPDVNTNGQIMSWMVDEYNKLTGQSSIGVITGKPVEFGGSLGRTAATGFGVAVTAREAAAKLGIDMKKAKIAVQGIGNVGSYTVLNCEKLGGTVVAMAEWCKSEGSYAIYNENGLDGQAMLDYMKEHGNLLNFPGAKRISLEEFWASDVDIVIPAALENSITKEVAESIKAKLVCEAANGPTTPEADEVFAERGIVLTPDILTNAGGVTVSYFEWVQNLYGYYWSEEEVEQKEEIAMVKAFESIWKIKEEYNVTMREAAYMHSIKKVAEAMKLRGWY
B3: Nanobody E3 (VHH)
chain: QVQLVESGGGLVQTGGSLRLSCASSGSIAGFETVTWSRQAPGKSLQWVASMTKTNNEIYSDSVKGRFIISRDNAKNTVYLQMNSLKPEDTGVYFCKGPELRGQGIQVTVSS
notes: also called TcdB nanobody E3

Assays:
[1] = target: inactivated toxoid B (TxB) (C. difficile, inactivated toxoid (how it was inactivated is not stated)); assay: SPR; details: both partners purified
Affimer 4 = assay: SPR; biotinylated Affimer/nanobody immobilised on a streptavidin chip, titrated with serial dilutions of analyte; fit to 1:1 Langmuir model
Sequence of Affimer 4 (main, as listed by the source): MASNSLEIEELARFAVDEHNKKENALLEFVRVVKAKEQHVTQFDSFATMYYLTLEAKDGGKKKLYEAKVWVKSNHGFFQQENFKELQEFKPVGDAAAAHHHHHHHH

Binder | Kd [1] [nM] | koff [1] [s⁻¹] | kon [1] [M⁻¹ s⁻¹] | Kd (Affimer 4) [nM] | koff (Affimer 4) [s⁻¹] | kon (Affimer 4) [M⁻¹ s⁻¹]
B1 | 33 | 0.0009 | 28000 | – | – | –
B2 | – | – | – | 19 | 0.00081 | 44000
B3 | 2.5 | 0.00025 | 100000 | – | – | –
